From PMC3601782

Target: Sox2 (UniProt P48431)
Assay: co-IP Flag-Oct4 variants, endogenous Sox2
Settings: reference: Flag-Oct4 wild type; sites T235

Substance: Oct4 (from UniProt Q01860) Flag-Oct4-T235A
- binding against the reference: weaker
